According to patent publication US20160177307:

Columns and labels:
[1] = test system: T1, VEGF-121 (Homo sapiens), P15692-9; test: filter
T1 sequence: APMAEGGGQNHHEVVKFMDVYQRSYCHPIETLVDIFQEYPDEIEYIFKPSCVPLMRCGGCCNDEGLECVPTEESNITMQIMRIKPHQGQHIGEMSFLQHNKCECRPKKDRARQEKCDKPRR

[2] = molecular target: PDGF-BB (platelet-derived growth factor BB) (Homo sapiens) (UniProt P01127); test: filter
[3] = all Z are BndU, rest DNA, SB18T, 37 C

PDGF-BB (platelet-derived growth factor BB) (Homo sapiens), sequence (P01127 82-190): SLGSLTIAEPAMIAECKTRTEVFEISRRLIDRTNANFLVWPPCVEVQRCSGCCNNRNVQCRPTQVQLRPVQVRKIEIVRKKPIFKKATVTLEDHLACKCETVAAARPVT

Question: With “CCGTTCAAGTGCTTGTAAGATTTAAATGGA [4867-31_151]” as the sequence, how does the Kd ([1]; P=Nap-dU) read?
Answer: Its Kd is 0.16 nM.

Question: Which Kd ([1]; NapdU at P, C3 spacer 15,18, 2'-OMe 1,6,9,12,17,25,28,29) does the source give for “CCGTTCAAGTGCTTTAGATTTAAATGG [4867-31_186]” here?
Answer: The Kd was 1.6 nM.

Question: Which Kd ([1]; C3 spacer at 17, all P are NapdU, C3 at G17) does the source give for “AGCCGTTCAAGTGCTTTAGGATTTAAATGGA [4867-31_98]” here?
Answer: The Kd was 0.1 nM.

Question: With “CCGTTCAAGTGCTTGTAGGATTTAAATGG [4867-31_483]” as the sequence, how does the Kd ([1]; as 4867-31_192, PS 24,25) read?
Answer: The Kd was 0.032 nM.

Question: “AGCCGTTCAAGTGCTTGTAGGATTTAAATGGA [4867-31_81]” was tested. Which Kd ([1]; P=Nap-dU, 2'-OMe G17) did it give?
Answer: The Kd was 0.44 nM.

Question: For “CCCCCATCAGCCGTTCAAGTGCTTGTAGGATTTAAATGGAATTGGAGGA [4867-15_27]”, which Kd ([1]; P=Nap-dU, C3 spacer at 4) is on record?
Answer: The Kd was 0.4 nM.

Question: “CCCTCCATCAGCCGTTAAGTGCTTGTAGGATTTAAATGGAATTGGAGGA [4867-15_40]” was tested. Which Kd ([1]; P=Nap-dU, C3 spacer at 17) did it give?
Answer: Its Kd is 0.17 nM.

Question: Which Kd ([1]; NapdU at P, 2'-OMe 9,15,17,18,28,29 as printed) does the source give for “CCGTTCAAGTGCTTGTAGGATTTAAATGG [4867-31_191]” here?
Answer: Its Kd is 0.1 nM.

Question: “CCCTCCATCAGCGTTCAAGTGCTTGTAGGATTTAAATGGAATTGGAGGA [4867-15_35]” was tested. Which Kd ([1]; P=Nap-dU, C3 spacer at 12) did it give?
Answer: The Kd was 3.4 nM.

Question: With “CCGTTCAAGTGCTTCTAGGATTTAAATGGA [4867-31_149]” as the sequence, how does the Kd ([1]; P=Nap-dU) read?
Answer: The Kd was 0.27 nM.

Question: CGACAGCATGTATGCACATCTAGAGGC [5169-4_20] was tested. Which Kd ([2]; NapdU at P) did it give?
Answer: The Kd was 0.014 nM.

Question: With TTACGTTACCGCGTTTATAGCG [4149-8_420] as the sequence, how does the Kd ([2]; as 4149-8_379, 2'-OMe 15, iBudU 16) read?
Answer: Its Kd is 1.4 nM.

Question: “ACTACGTTACACGCGTTTATAGCGTCAACCCGAGTGAACA [4149-8_15]” was tested. Which Kd ([2]; Bn-dU) did it give?
Answer: Its Kd is over 10 nM.

Question: Which Kd ([2]; NapdU at P) does the source give for GACAGCATGTATGCACATCTAGAG [5169-4_32] here?
Answer: Its Kd is 0.053 nM.

Question: With CGACAGCATGTATGCACATCTAGAGG [5169-4_21] as the sequence, how does the Kd ([2]; NapdU at P) read?
Answer: The Kd was 0.021 nM.

Question: CGACAGCATGTATGCACATT [5169-4_78] was tested. Which Kd ([2]; NapdU at P, C3 spacer at 20) did it give?
Answer: Its Kd is 0.28 nM.

Question: For CGACAGCATGTATGCACATCT [5169-4_46], which Kd ([2]; NapdU at P, 2'-OMe 12) is on record?
Answer: Its Kd is 0.093 nM.

Question: CGACAGCATGTATGCACATCT [5169-4_154] was tested. Which Kd ([2]; as 5169-4_146 plus PS 3' of P9, 3'-idT, 1.8-fold weaker than parent) did it give?
Answer: The Kd was 0.026 nM.

Question: How did the Kd [2, 3] turn out when “TACGACTACGTTACACGCGTTTATAGCGTCAACCCGAGTGAACA [4149-8_13]” was run?
Answer: The Kd was 0.8 nM.

Question: For CGACAGATGTATGCACATCT [5169-4_65], which Kd ([2]; NapdU at P, C3 spacer at 7) is on record?
Answer: Its Kd is 0.074 nM.

Question: How did the Kd ([2]; NapdU at P, C3 spacer at 16) turn out when CGACAGCATGTATGCCATCT [5169-4_74] was run?
Answer: The Kd was 0.37 nM.

Question: For TTACGTTACACGCGTTTATAGCG [4149-8_129], which Kd ([2]; Bn-dU, Nap-dU, Heg, 2'-OMe) is on record?
Answer: The Kd was over 10 nM.

Question: Which Kd ([2]; Bn-dU, C3 linkers, 2'-OMe) does the source give for TTACGCCGTTACACGCGTTTATAGCG [4149-8_102] here?
Answer: Its Kd is over 10 nM.

Question: For CGACAGCATGTATGCACATCT [5169-4_51], which Kd ([2]; NapdU at P, 2'-OMe 13) is on record?
Answer: The Kd was 0.32 nM.

Question: CGACAGCATGTATGCACATCT [5169-4_47] was tested. Which Kd ([2]; NapdU at P, 2'-OMe 16) did it give?
Answer: The Kd was 0.016 nM.

Question: Which Kd ([2]; NapdU at P, 2'-OMe 19) does the source give for CGACAGCATGTATGCACATCT [5169-4_52] here?
Answer: The Kd was 0.31 nM.

Question: With CGACAGCATGTATGCACATCT [5169-4_117] as the sequence, how does the Kd ([2]; NapdU at P, 2'-OMe 4,12,17) read?
Answer: Its Kd is 0.71 nM.

Question: How did the Kd [2, 3] turn out when “CTCTTACGACTACGTTACACGCGTTTATAGCGTCAACCCGAGTGAACA [4149-8_11]” was run?
Answer: Its Kd is 0.03 nM.

Question: Which Kd ([2]; Bn-dU, Pe-dU17, 2'-F C14, Heg, 2'-OMe) does the source give for TTACGTTACACGCGTTTATAGCG [4149-8_351] here?
Answer: The Kd was over 10 nM.

Question: For CGACAGCATGTATGCACATCT [5169-4_124], which Kd ([2]; NapdU at P, 2'-OMe 5,20,21) is on record?
Answer: The Kd was 0.6 nM.

Question: TTACGTTACCGCGTTTATAGCG [4149-8_435] was tested. Which Kd ([2]; as 4149-8_379, BndU 2, NapdU 16, PS 9,15,17) did it give?
Answer: Its Kd is 0.016 nM.

Question: With CGACAGCATGTATGCACATCT [5169-4_81] as the sequence, how does the Kd ([2]; NapdU at P, 2'-OMe 7,14,16,18) read?
Answer: Its Kd is 0.0049 nM.

Question: Which Kd ([2]; NapdU at P, 2'-OMe 1,6,18) does the source give for CGACAGCATGTATGCACATCT [5169-4_107] here?
Answer: Its Kd is 0.013 nM.

Question: With “TTACACGCGTTTATAGCGTCAACCCGAGTGAACA [4149-8_18]” as the sequence, how does the Kd [2, 3] read?
Answer: The Kd was 13 nM.

Question: With CGACAGCATGTATGCAATCT [5169-4_75] as the sequence, how does the Kd ([2]; NapdU at P, C3 spacer at 17) read?
Answer: The Kd was 0.14 nM.

Question: TTACGTTACCGCGTTTATAGCG [4149-8_437] was tested. Which Kd ([2]; as 4149-8_379, BndU 2, NapdU 16, PS 9,15) did it give?
Answer: Its Kd is 0.0074 nM.

Question: Which Kd ([2]; NapdU at P) does the source give for CGACAGCATGTATGCACATCTAGAG [5169-4_22] here?
Answer: Its Kd is 0.015 nM.

Question: For “CTGCCTCGACAGCATGTATGCACATCTAGAGGCTACCCAGTGAATGA [5169-4_7]”, which Kd ([2]; NapdU at P) is on record?
Answer: Its Kd is 0.014 nM.

Question: For CGACAGCATGTATGCACATCT [5169-4_53], which Kd ([2]; NapdU at P, 2'-OMe 21) is on record?
Answer: The Kd was 0.022 nM.

Question: CGACAGCATGTATGCACATCT [5169-4_151] was tested. Which Kd ([2]; as 5169-4_146 plus PS 3' of A3, 3'-idT) did it give?
Answer: The Kd was 0.006 nM.

Question: Which Kd ([2]; as 4149-8_379 plus 2'-OMe A9,G13 or G15 as printed in SEQ:409) does the source give for TTACGTTACCGCGTTTATAGCG [4149-8_426] here?
Answer: The Kd was 42 nM.

Question: CACAGCATGTATGCACATCT [5169-4_60] was tested. Which Kd ([2]; C3 spacer at 2, NapdU at 9,11,13,19,21, C3 spacer walk) did it give?
Answer: Its Kd is 27 nM.

Question: With TTACGTTACCGCGTTTATAGCG [4149-8_456] as the sequence, how does the Kd ([2]; BndU, NapdU 16, 2'-OMe 3,7,12,18,19,21,24, PS 8,9,15,16,17, Heg 5, C3 11) read?
Answer: The Kd was 0.027 nM.

Question: How did the Kd ([2]; C3 spacer at 18, NapdU at 9,11,13,19,21, C3 spacer walk) turn out when CGACAGCATGTATGCACTCT [5169-4_76] was run?
Answer: Its Kd is 1.3 nM.

Question: Which Kd ([2]; all Z are BndU (5-(N-benzylcarboxamide)-2'-deoxyuridine), rest DNA, SB18T, 37 C, Zorbax partition) does the source give for “ATCTCTTACGACTACGTTACACGCGTTTATAGCGTCAACCCGAGTGAACA [4149-8_2]” here?
Answer: The Kd was 0.05 nM.

Question: With CGACAGCATGTATGCACATCT [5169-4_130] as the sequence, how does the Kd ([2]; NapdU at P, 2'-OMe 7,8,9) read?
Answer: Its Kd is 4.5 nM.

Question: With “TTACGACTACGTTACACGCTTTATAGCG [4149-8_83]” as the sequence, how does the Kd ([2]; Bn-dU, C3 at 20) read?
Answer: The Kd was over 10 nM.

Question: TTACGTTACACGCGTTTATAGCG [4149-8_364] was tested. Which Kd ([2]; Bn-dU, dT8, Heg5, 2'-OMe A3, A11, A21, G24) did it give?
Answer: Its Kd is over 10 nM.
